The source of these data is the RNAGym collection of RNA variant scans (doi:10.7554/elife.80360).

B1: HDV Ribozyme (parent)
chain: GGCCGGCAUGGUCCCAGCCUCCUCGCUGGCGCCGGCUGGGCAACAUUCCGAGGGGACCGUCCCCUCGGUAAUGGCGAAUGGGACCCA

In this series the parent is B1. The experiment in a line: self-cleavage, relative activity (ratio to wild type); higher = more cleavage; co-transcriptional.
On to GGCCGGCAUGGUCCCAGCCUCCUCGCUGGCGCCGGCUGGGCAACAUUGCGAGGGGAGCGUCCCCUCGGUAAUGGCGAAUGGGACCCA [C48G C57G], for which the self-cleavage turned out to be 1.03.
To GGCCGGCAUGGUCCCAGCCUCCUCGCUGGCGCCGGCUGGGCAACAUUGCGAGGGGACUGUCCCCUCGGUAAUGGCGAAUGGGACCCA [C48G C58U] belongs 0.617; to GGCCGGCAUGGUCCCAGCCUCCUCGCUGGCGCCGGCUGGGCAACAUUGCGAGGGGACGGUCCCCUCGGUAAUGGCGAAUGGGACCCA [C48G C58G], 1.11; to GGCCGGCAUGGUCCCAGCCUCCUCGCUGGCGCCGGCUGGGCAACAUUGCGAGGGGACCGUCCCCUCGGUAAUGGCGAGUGGGACCCA [C48G A78G], 0.86.
To GGCCGGCAUGGUCCCAGCCUCCUCGCUGGCGCCGGCUGGGCAACAUUGCGAGGGGACCGUCCCCUCGGUAAUGGCGACUGGGACCCA [C48G A78C] belongs 0.199; to GGCCGGCAUGGUCCCAGCCUCCUCGCUGGCGCCGGCUGGGCAACAUUACGAGGGGACCGUCCCCUCGGUAAUGGCGAAGGGGACCCA [C48A U79G], 0.982; to GGCCGGCAUGGUCCCAGCCUCCUCGCUGGCGCCGGCUGGGCAACAUUACGAGGGGACCGUCCCCUCGGUAAUGGCGAACGGGACCCA [C48A U79C], 0.514.
The result for GGCCGGCAUGGUCCCAGCCUCCUCGCUGGCGCCGGCUGGGCAACAUUACGACGGGACCGUCCCCUCGGUAAUGGCGAAUGGGACCCA [C48A G52C] reads 1.03.
With GGCCGGCAUGGUCCCAGCCUCCUCGCUGGCGCCGGCUGGGCAACAUUACGAGGGGACUGUCCCCUCGGUAAUGGCGAAUGGGACCCA [C48A C58U], the self-cleavage was 1.11.
To GGCCGGCAUGGUCCCAGCCUCCUCGCUGGCGCCGGCUGGGCAACAUUACGAGGGGACCGUCCCCACGGUAAUGGCGAAUGGGACCCA [C48A U65A] belongs 0.845; to GGCCGGCAUGGUCCCAGCCUCCUCGCUGGCGCCGGCUGGGCAACAUUACGAGGGGACCGUCCCCUAGGUAAUGGCGAAUGGGACCCA [C48A C66A], 0.92.
With GGCCGGCAUGGUCCCAGCCUCCUCGCUGGCGCCGGCUGGGCAACAUUACGAGGGGACCGUCCCCUUGGUAAUGGCGAAUGGGACCCA [C48A C66U], the self-cleavage came to 0.988.
Consider GGCCGGCAUGGUCCCAGCCUCCUCGCUGGCGCCGGCUGGGCAACAUUACGAGGGGACCGUACCCUCGGUAAUGGCGAAUGGGACCCA [C48A C61A], for which the self-cleavage is 1.02.
Take GGCCGGCAUGGUCCCAGCCUCCUCGCUGGCGCCGGCUGGGCAACAUUACGAGGGGACCGUCCCCUCGGUAAUGGCGGAUGGGACCCA [C48A A77G]: the self-cleavage is 0.601.
As to GGCCGGCAUGGUCCCAGCCUCCUCGCUGGCGCCGGCUGGGCAACAUUACGAGGGGACCGUCCCCUCGGUAAUGGCGCAUGGGACCCA [C48A A77C], the self-cleavage came to 0.237.
To GGCCGGCAUGGUCCCAGCCUCCUCGCUGGCGCCGGCUGGGCAACAUUACGAGGGGACCGUCCCCUCGGUAAUGGCGUAUGGGACCCA [C48A A77U] belongs 0.673.
The result for GGCCGGCAUGGUCCCAGCCUCCUCGCUGGCGCCGGCUGGGCAACAUUACGAGGGGACCGUCCCCUCGGUAAUGGCGAAUGGCACCCA [C48A G82C] reads 0.35.
As to GGCCGGCAUGGUCCCAGCCUCCUCGCUGGCGCCGGCUGGGCAACAUUACGAGGGGACCGUCCCCUCGGUAAUGGCGAAUUGGACCCA [C48A G80U], the self-cleavage amounted to 0.242.
The result for GGCCGGCAUGGUCCCAGCCUCCUCGCUGGCGCCGGCUGGGCAACAUUACGAGGGGACCGUCACCUCGGUAAUGGCGAAUGGGACCCA [C48A C62A] reads 0.878; that for GGCCGGCAUGGUCCCAGCCUCCUCGCUGGCGCCGGCUGGGCAACAUUACGAGGGGACCGUCCCCUCGUUAAUGGCGAAUGGGACCCA [C48A G68U], 1.1.
Regarding GGCCGGCAUGGUCCCAGCCUCCUCGCUGGCGCCGGCUGGGCAACAUUGGGAGGGGACCGUCCCCUCGGUAAUGGCGAAUGGGACCCA [C48G C49G], the self-cleavage was found to be 0.906.
To GGCCGGCAUGGUCCCAGCCUCCUCGCUGGCGCCGGCUGGGCAACAUUGCGAGGGGACCGUCCCCUCGGUAAUGGCGUAUGGGACCCA [C48G A77U] belongs 0.748; to GGCCGGCAUGGUCCCAGCCUCCUCGCUGGCGCCGGCUGGGCAACAUUACGAGGGGACCGUCCCCUCGGUAAUAGCGAAUGGGACCCA [C48A G73A], 0.755; to GGCCGGCAUGGUCCCAGCCUCCUCGCUGGCGCCGGCUGGGCAACAUUGCGAGGGGACCGUCCCCUCGGUGAUGGCGAAUGGGACCCA [C48G A70G], 0.772.
Regarding GGCCGGCAUGGUCCCAGCCUCCUCGCUGGCGCCGGCUGGGCAACAUUACGAGGGGACCGUCCCCUCGGUAAUGGCGAAUGGGACCCU [C48A A87U], the self-cleavage was found to be 1.03.
The result for GGCCGGCAUGGUCCCAGCCUCCUCGCUGGCGCCGGCUGGGCAACAUUACGAGGGGACCGUCCCCUCGGUAAUGGCGAAUGGGACCCC [C48A A87C] reads 1.16; that for GGCCGGCAUGGUCCCAGCCUCCUCGCUGGCGCCGGCUGGGCAACAUUACGAGGUGACCGUCCCCUCGGUAAUGGCGAAUGGGACCCA [C48A G54U], 0.975; that for GGCCGGCAUGGUCCCAGCCUCCUCGCUGGCGCCGGCUGGGCAACAUUACGAGGCGACCGUCCCCUCGGUAAUGGCGAAUGGGACCCA [C48A G54C], 1.17.
The result for GGCCGGCAUGGUCCCAGCCUCCUCGCUGGCGCCGGCUGGGCAACAUUACGAGGAGACCGUCCCCUCGGUAAUGGCGAAUGGGACCCA [C48A G54A] reads 1.06; that for GGCCGGCAUGGUCCCAGCCUCCUCGCUGGCGCCGGCUGGGCAACAUUACGAGGGGACCGUCCCUUCGGUAAUGGCGAAUGGGACCCA [C48A C64U], 0.923; that for GGCCGGCAUGGUCCCAGCCUCCUCGCUGGCGCCGGCUGGGCAACAUUACGAGGGGACCGUCCCCUCGGUAAUGCCGAAUGGGACCCA [C48A G74C], 0.208.
GGCCGGCAUGGUCCCAGCCUCCUCGCUGGCGCCGGCUGGGCAACAUUACGAGGGGACCAUCCCCUCGGUAAUGGCGAAUGGGACCCA [C48A G59A]: the self-cleavage amounted to 1.22.
